Experiment [1] addresses human IgE (human) (UniProt P01854). The experiment is described as follows: ELISA-based potency on human IgE; GI-301 100 mg/mL, 250 mM proline, histidine/HCl pH 6.7, 0.1 w/v % Tween 80 and 20 mg/mL methionine; after light stress (7.5 hours, 750 W/m^2); n=2.
Experiment [2] has the same target. As to the kind of experiment: ELISA-based potency on human IgE; GI-301 100 mg/mL, 250 mM proline, histidine/HCl pH 6.7, no additive; after 35° C., 200 rpm, 14 days; n=2.
The target is the same in experiment [3]. As to the kind of experiment: ELISA-based potency on human IgE; GI-301 100 mg/mL, 250 mM proline, histidine/HCl pH 6.7, 0.1 w/v % Tween 80; after 35° C., 200 rpm, 5 days; n=2.
For experiment [4] the target is unchanged. The experiment is described as follows: ELISA-based potency on human IgE; GI-301 100 mg/mL, 250 mM proline, histidine/HCl pH 6.7, 20 mg/mL methionine; after 35° C., 200 rpm, 14 days; n=2.
For experiment [5] the target is unchanged. The experiment is described as follows: ELISA relative potency; GI-301 dialyzed into 10 mM His/HCl pH 6.7, 250 mM proline.
Experiment [6] shares this target. The experiment is described as follows: ELISA relative potency; GI-301 dialyzed into 10 mM Tris/HCl pH 7.4, 250 mM mannitol.
The target is the same in experiment [7]. As to the kind of experiment: ELISA-based potency on human IgE; GI-301 100 mg/mL, 250 mM proline, histidine/HCl pH 6.7, 0.1 w/v % Tween 80 and 20 mg/mL methionine; after 35° C., 200 rpm, 5 days; n=2.
Experiment [8] has the same target. The experiment is described as follows: ELISA-based potency on human IgE; GI-301 100 mg/mL, 250 mM proline, histidine/HCl pH 6.7, 20 mg/mL methionine; after 35° C., 200 rpm, 5 days; n=2.
For experiment [9] the target is unchanged. As to the kind of experiment: ELISA relative potency; GI-301 dialyzed into 10 mM His/HCl pH 6.7, 250 mM trehalose.
Experiment [10] has the same target. The experiment is described as follows: ELISA-based potency on human IgE; GI-301 100 mg/mL, 250 mM proline, histidine/HCl pH 6.7, 0.1 w/v % Tween 80; after light stress (7.5 hours, 750 W/m^2); n=2.
For experiment [11] the target is unchanged. The experiment is described as follows: ELISA-based potency on human IgE; GI-301 100 mg/mL, 250 mM proline, histidine/HCl pH 6.7, 0.1 w/v % Tween 80; after 35° C., 200 rpm, 14 days; n=2.
Experiment [12] shares this target. As to the kind of experiment: ELISA-based potency on human IgE; GI-301 100 mg/mL, 250 mM proline, histidine/HCl pH 6.7, 0.1 w/v % Tween 80 and 20 mg/mL methionine; after 35° C., 200 rpm, 14 days; n=2.
Experiment [13] has the same target. The experiment is described as follows: ELISA-based potency on human IgE; GI-301 100 mg/mL, 250 mM proline, histidine/HCl pH 6.7, no additive; after light stress (7.5 hours, 750 W/m^2); n=2.
Experiment [14] has the same target. As to the kind of experiment: ELISA-based potency on human IgE; GI-301 100 mg/mL, 250 mM proline, histidine/HCl pH 6.7, no additive; after 35° C., 200 rpm, 5 days; n=2.
The target is the same in experiment [15]. As to the kind of experiment: ELISA relative potency; GI-301 dialyzed into 10 mM Tris/HCl pH 7.4, 250 mM proline.
The target is the same in experiment [16]. The experiment is described as follows: ELISA-based potency on human IgE; GI-301 100 mg/mL, 250 mM proline, histidine/HCl pH 6.7, 20 mg/mL methionine; after light stress (7.5 hours, 750 W/m^2); n=2.
For experiment [17] the target is unchanged. As to the kind of experiment: ELISA relative potency; GI-301 dialyzed into 10 mM His/HCl pH 6.7, 250 mM mannitol.

UniProt P01854, sequence (P01854 other isoform, or with tags, fused parts or gaps): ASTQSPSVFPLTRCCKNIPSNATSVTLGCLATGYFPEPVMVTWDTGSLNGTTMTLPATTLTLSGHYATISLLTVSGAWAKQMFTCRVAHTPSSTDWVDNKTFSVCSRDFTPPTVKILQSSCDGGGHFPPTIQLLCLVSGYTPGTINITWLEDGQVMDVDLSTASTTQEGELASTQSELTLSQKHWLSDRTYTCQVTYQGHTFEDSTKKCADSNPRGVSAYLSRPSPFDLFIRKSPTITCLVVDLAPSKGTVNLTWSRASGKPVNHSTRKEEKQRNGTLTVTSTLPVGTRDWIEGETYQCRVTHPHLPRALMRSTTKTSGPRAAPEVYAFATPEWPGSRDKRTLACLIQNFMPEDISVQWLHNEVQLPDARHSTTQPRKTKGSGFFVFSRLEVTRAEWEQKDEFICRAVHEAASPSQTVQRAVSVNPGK

B1: GI-301 (fusion protein dimer comprising FcεRIα ECD and modified Fc region) (Fc fusion, not shown: small tags and cut ends)
chain: VPQKPKVSLNPPWNRIFKGENVTLTCNGNNFFEVSSTKWFHNGSLSEETNSSLNIVNAKFEDSGEYKCQHQQVNESEPVYLEVFSDWLLLQASAEVVMEGQPLFLRCHGWRNWDVYKVIYYKDGEALKYWYENHNISITNATVEDSGTYYCTGKVWQLDYESEPLNITVIKAPREKYWLQSHTQPLGVFLFPPKPKDTLMISRTPEVTCVVVDVSQEDPEVQFNWYVDGVEVHNAKTKPREEQFNSTYRVVSVLTVLHQDWLNGKEYKCKVSNKGLPSSIEKTISKAKGQPREPQVYTLPPSQEEMTKNQVSLTCLVKGFYPSDIAVEWESNGQPENNYKTTPPVLDSDGSFFLYSRLTVDKSRWQEGNVFSCSVMHEALHNHYTQKSLSLSLGK
On to B1, for which the relative potency by ELISA in [1] was 111%; in experiment [2], 105%; in experiment [3], 92.1%; in experiment [4], 74.2%; in experiment [7], 94.3%; in [8], 113%. Besides, the relative potency by ELISA was found to be 110% in experiment [10]; 80.4% in experiment [11]; 111% in experiment [12]; 110% in experiment [13]; 79.7% in experiment [14]; 112% in experiment [16]. Moreover, the potency ELISA [%] (relative potency) is 101% in [5]; 92% in experiment [6]; 103% in experiment [9]; 106% in experiment [15]; 98% in experiment [17].

These data come from patent publication US20240148829A1.
